Results on three substances are retold here after US5916561.

The target in test [1] is soluble CD44 variants containing exon v6 in normal human serum (human) (UniProt P16070). The test is described as follows: sandwich ELISA, coating antibody, serum 2 diluted 1:160, detection BU-52-peroxidase. (In general: An ELISA detects its analyte on a solid surface through an enzyme-linked reagent.)
The target is the same in test [2]. Kind of test: sandwich ELISA, coating antibody, serum 1 diluted 1:160, detection BU-52-peroxidase.
For test [3] the target is unchanged. The test is described as follows: sandwich ELISA, coating antibody, serum 1 diluted 1:640, detection BU-52-peroxidase.
The target is the same in test [4]. Kind of test: sandwich ELISA, coating antibody, serum 2 diluted 1:80, detection BU-52-peroxidase.
Test [5] has the same target. Kind of test: sandwich ELISA, coating antibody, serum 2 diluted 1:40, detection BU-52-peroxidase.
The target is the same in test [6]. Kind of test: sandwich ELISA, coating antibody, serum 1 diluted 1:10, detection BU-52-peroxidase.
For test [7] the target is unchanged. The test is described as follows: sandwich ELISA, coating antibody, serum 2 diluted 1:10, detection BU-52-peroxidase.
For test [8] the target is unchanged. The test is described as follows: sandwich ELISA, coating antibody, serum 2 diluted 1:20, detection BU-52-peroxidase.
For test [9] the target is unchanged. The test is described as follows: sandwich ELISA, coating antibody, serum 2 diluted 1:5, detection BU-52-peroxidase.
Test [10] has the same target. The test is described as follows: sandwich ELISA, coating antibody, serum 1 diluted 1:40, detection BU-52-peroxidase.
Test [11] has the same target. Kind of test: sandwich ELISA, coating antibody, serum 2 diluted 1:640, detection BU-52-peroxidase.
The target is the same in test [12]. Kind of test: sandwich ELISA, coating antibody, serum 1 diluted 1:320, detection BU-52-peroxidase.
For test [13] the target is unchanged. The test is described as follows: sandwich ELISA, coating antibody, serum 1 diluted 1:20, detection BU-52-peroxidase.
Test [14] has the same target. The test is described as follows: sandwich ELISA, coating antibody, serum 1 diluted 1:5, detection BU-52-peroxidase.
For test [15] the target is unchanged. Kind of test: sandwich ELISA, coating antibody, serum 1 diluted 1:80, detection BU-52-peroxidase.
Test [16] shares this target. Kind of test: sandwich ELISA, coating antibody, serum 2 diluted 1:320, detection BU-52-peroxidase.
In test [17] the target is human variant CD44 (exons v3-v10) on the cell surface of CHO-CD44var cells (human) (UniProt P16070). The test is described as follows: 3H-labelled antibody on ethanol-fixed CHO CD44var cells.
In test [18] the target is CD44 (variant isoforms not specified) on COLO 205 cells (human) (UniProt P16070). Kind of test: 3H-labelled antibody on ethanol-fixed COLO 205 cells.
Test [19] has as its target CD44 (variant isoforms not specified) on HCT-116 cells (human) (UniProt P16070). The test is described as follows: 3H-labelled antibody on ethanol-fixed HCT-116 cells.
Test [20] deals with CD44 (variant isoforms not specified) on CaCo cells (human) (UniProt P16070). The test is described as follows: 3H-labelled antibody on ethanol-fixed CaCo cells.
Test [21] addresses CD44 (variant isoforms not specified) on A431 cells (human) (UniProt P16070). Kind of test: 3H-labelled antibody on ethanol-fixed A431 cells.
The target in test [22] is CD44 (variant isoforms not specified) on CX-1 cells (human) (UniProt P16070). The test is described as follows: 3H-labelled antibody on ethanol-fixed CX-1 cells.
Test [23] deals with CD44 (variant isoforms not specified) on HT-29 cells (human) (UniProt P16070). The test is described as follows: 3H-labelled antibody on ethanol-fixed HT-29 cells.
Test [24] deals with soluble CD44 variants containing exon v6 in normal human serum (human) (UniProt P16070). Kind of test: sandwich ELISA, serum of donor 5, calibrated on recombinant soluble CD44v3-v10; reference VFF-7.
The target is the same in test [25]. The test is described as follows: sandwich ELISA, serum of donor 2, calibrated on recombinant soluble CD44v3-v10; reference VFF-7.
Test [26] has the same target. Kind of test: sandwich ELISA, serum of donor 6, calibrated on recombinant soluble CD44v3-v10; reference VFF-7.
For test [27] the target is unchanged. Kind of test: sandwich ELISA, serum of donor 1, calibrated on recombinant soluble CD44v3-v10; reference VFF-7.
Test [28] shares this target. The test is described as follows: sandwich ELISA, sera of 6 healthy donors, calibrated on recombinant soluble CD44v3-v10; reference VFF-7.
Test [29] shares this target. The test is described as follows: sandwich ELISA, serum of donor 3, calibrated on recombinant soluble CD44v3-v10; reference VFF-7.
The target is the same in test [30]. The test is described as follows: sandwich ELISA, serum of donor 4, calibrated on recombinant soluble CD44v3-v10; reference VFF-7.

With antibody VFF-4, the absorption (sandwich ELISA signal) (absorption at 450 nm) in [1] stood at 0.336; in test [2], 0.05; in test [3], 0.012; in [4] it was 0.699; in [5], 1.21; in test [6], 0.378. The absorption (sandwich ELISA signal) (absorption at 450 nm) in test [7] is 1.76; in [8], 1.56; in [9], 1.69; in test [10], 0.207; in test [11] it was 0.054; in test [12], 0.026. Moreover, the absorption (sandwich ELISA signal) (absorption at 450 nm) stood at 0.296 in test [13], 0.406 in test [14], 0.109 in test [15] and 0.138 in test [16].

As to antibody VFF-7, the specific binding (bound antibody per 400 000 cells) was determined as 33.5 fmol in test [17]; 0 fmol in test [18]; 1.44 fmol in test [19]; 0.03 fmol in test [20]; 8.19 fmol in [21]; 0.19 fmol in test [22]. The substance also returned a specific binding (bound antibody per 400 000 cells) in test [23] of 0 fmol. Besides, the absorption (sandwich ELISA signal) (absorption at 450 nm) is 0.061 in [1]; 0.03 in [2]; 0.007 in [3]; 0.208 in [4]; 0.468 in test [5]; 0.289 in [6]. Further, the absorption (sandwich ELISA signal) (absorption at 450 nm) came to 1.19 in [7]; 0.857 in [8]; 1.28 in test [9]; 0.072 in [10]; 0.018 in test [11]; 0.008 in [12]. Further, the absorption (sandwich ELISA signal) (absorption at 450 nm) in [13] stood at 0.179; in [14], 0.417; in test [15], 0.062; in test [16] it was 0.014.

In the case of antibody VFF-18, the specific binding (bound antibody per 400 000 cells) in [17] turned out to be 46.5 fmol; in test [18] it was 2.88 fmol; in test [19], 20.2 fmol; in test [20], 12.6 fmol; in test [21], 38.7 fmol; in [22], 9.48 fmol. The substance further yielded a specific binding (bound antibody per 400 000 cells) in test [23] of 26.1 fmol. In addition, the absorption (sandwich ELISA signal) (absorption at 450 nm) in test [1] was determined as 1.67; in test [2] it was 0.594; in [3], 0.159; in test [4], 2.54; in test [5], 3.05; in [6] it was 3.06. In addition, the absorption (sandwich ELISA signal) (absorption at 450 nm) in test [7] turned out to be 3.32; in test [8], 3.16; in test [9], 3.29; in [10], 1.78; in test [11] it was 0.546; in test [12], 0.318. Further, the absorption (sandwich ELISA signal) (absorption at 450 nm) in [13] worked out at 2.63; in test [14] it was 3.14; in [15], 1.08; in [16], 0.988. For the same substance, the VFF-18/VFF-7 (ratio of the serum levels read by the two ELISAs) was determined as 3.67 in [24]; 2.66 in test [25]; 3.48 in test [26]; 4.17 in test [27]; 3.91 in test [29]; 3.31 in [30]. Moreover, in test [28], the VFF-18/VFF-7 (mean value of the ratio over 6 donors) was 3.53.
